Results as given in patent US20190010233A1 (JIANGSU HYAMAB PHARMACEUTICAL, published 2019).

T1: hPD-L2 (human, UniProt Q9BQ51 20-219, limits assumed)
T1 construct: Bought protein
T1 sequence (looked up): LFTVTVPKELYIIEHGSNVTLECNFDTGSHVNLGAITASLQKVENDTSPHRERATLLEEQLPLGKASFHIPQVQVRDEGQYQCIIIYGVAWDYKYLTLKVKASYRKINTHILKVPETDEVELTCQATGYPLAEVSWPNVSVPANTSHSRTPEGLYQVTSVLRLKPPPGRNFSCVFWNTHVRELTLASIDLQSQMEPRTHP


Key:
[1] = target: T2, human PD-L1^ECD-hFc protein (human, UniProt Q9NZQ7 19-239, biotinylated in the PD-1 binding ELISA (Table 3) and in the Octet assay (Table 12)); experiment: ELISA, 100 nM mAb
T2 construct: The plain and the biotinylated protein are kept as one molecule; also called PD-L1-hFc; Immunogen A; not shown: human IgG Fc fragment (hFc)
T2 sequence (Q9NZQ7 19-239): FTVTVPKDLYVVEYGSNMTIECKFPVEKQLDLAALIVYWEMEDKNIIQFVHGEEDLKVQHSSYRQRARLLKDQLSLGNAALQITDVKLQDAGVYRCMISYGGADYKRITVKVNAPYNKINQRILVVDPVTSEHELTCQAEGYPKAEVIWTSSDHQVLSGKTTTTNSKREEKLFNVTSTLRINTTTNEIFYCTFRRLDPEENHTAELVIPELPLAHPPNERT
Protocol: (§1) 100 μL of the diluted recombinant proteins were added to each well of 96-well plate. The plates were sealed with plastic film and incubated at 4° C. overnight. The plates were washed twice with wash buffer (PBS+0.01% (v/v) Tween20), and incubated with blocking buffer (PBS+0.01% (v/v) Tween20+1% (w/w) BSA) at room temperature for 2 hours. The blocking buffer was aspirated away, and 100 μL of purified anti-PD-L1 antibodies were added to each well and incubated for 2 hours at 37° C. The plates were washed three times with wash buffer (PBS+0.01% (v/v) Tween20). HRP-conjugated secondary antibody (Sigma) was added to each well and incubated for 2 hours at 37° C. After the plates were washed three times with wash buffer, 100 μL TMB substrate were added to each well, and the plates were incubated for 30 minutes at room temperature. 100 μL stop solution (0.1N HCl) was added to each well to stop the reaction.

[2] = target: T3, full length human PD-L1 on cells (human, UniProt Q9NZQ7 19-290); experiment: FACS CHO-K1-hPD-L1, 0.01 nM mAb
T3 construct: Also used as the target of the cell-based functional assays (transfected stimulator cells; PD-L1 of the cells in the mixed lymphocyte reaction); also called CHO-K1-hPD-L1; CHOK1-hPD-L1
T3 sequence (Q9NZQ7 19-290 limits assumed): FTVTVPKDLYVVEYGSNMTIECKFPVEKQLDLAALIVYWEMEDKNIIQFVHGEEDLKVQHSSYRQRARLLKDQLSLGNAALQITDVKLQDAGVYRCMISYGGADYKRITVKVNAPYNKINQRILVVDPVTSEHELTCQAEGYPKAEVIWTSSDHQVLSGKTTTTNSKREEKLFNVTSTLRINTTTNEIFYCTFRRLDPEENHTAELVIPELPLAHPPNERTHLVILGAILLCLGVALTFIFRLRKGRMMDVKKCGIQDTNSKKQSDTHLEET

[3] = target: T3, full length human PD-L1 on cells; experiment: FACS CHO-K1-hPD-L1, 1 nM mAb
[4] = target: T3, full length human PD-L1 on cells; experiment: FACS CHO-K1-hPD-L1, 0.1 nM mAb
[5] = target: T2, human PD-L1^ECD-hFc protein; experiment: ELISA, 1 nM mAb
Protocol: as §1

[6] = target: T3, full length human PD-L1 on cells; experiment: cell-based or functional assay
[7] = target: T2, human PD-L1^ECD-hFc protein; experiment: ELISA, 0.0001 nM mAb
Protocol: as §1

[8] = target: T3, full length human PD-L1 on cells; experiment: cell-based or functional assay; remark: listed apart in the source
[9] = target: T3, full length human PD-L1 on cells; experiment: FACS CHO-K1-hPD-L1, 0.41 nM mAb
Protocol: (§2) Other CHO-K1 were stably transfected with a pIRES plasmid containing the nucleic acid sequence encoding full length cyno PD-L1 to generate CHO-K1 cells stably expressing cyno PD-L1 (herein referred to as CHO-K1-cPD-L1 cells). […] The culture media was aspirated, and the cells were washed twice with HBSS (Hanks Balanced Salt Solution, Invitrogen). The cells were treated with enzyme-free cell dissociation solution (Versene solution, Invitrogen) and collected. The cells were then washed twice with HBSS, cell counts were determined, and cells were resuspended with HBSS at 2×10⁶ cells/mL. Goat serum was added to the cell suspension to a final concentration of 1%, and the cells were blocked for 30 minutes on ice and then washed twice with HBSS. The cells were collected after centrifugation and resuspended in FACS buffer (HBSS+1% BSA, v/v) at 2×10⁶ cells/mL. 100 μL of the cell suspension were then added to each well of 96-well plate. 100 μL of purified anti-PD-L1 antibodies from Example 2 were added to each well of the 96-well plate and incubated for 2 hours on ice. […] The samples were washed three times with FACS buffer, and 100 μL fixation buffer (4% paraformaldehyde v/v) were added to each well and incubated for 10 minutes. The cells were then washed twice with FACS buffer and resuspended in 100 μL FACS buffer. The mean fluorescence intensity (MFI) was determined using FACS Calibur (BD), and the results are shown in FIGS. 7-8 and in Tables 10-11.

[10] = target: T2, human PD-L1^ECD-hFc protein; experiment: ELISA, 3.333 nM mAb
Protocol: as §1

[11] = target: T4, cyno PD-L1^ECD-hFc protein (cyno, UniProt G7PSE7 19-239); experiment: ELISA, 3.333 nM mAb
T4 construct: also called Cyno Monkey PD-L1^ECD-hFc
T4 sequence (G7PSE7 entry or part of it limits assumed): as the sequence (Q9NZQ7 19-239) above, with A33T, A34S, S62N, R68Q, Q82R, F173L, T185A, T192I, H215L counted along it
Protocol: as §1

[12] = target: T5, full length cyno PD-L1 on cells (cyno, UniProt G7PSE7 19-290); experiment: FACS CHO-K1-cPD-L1, 1.23 nM mAb
T5 construct: also called CHO-K1-cPD-L1
T5 sequence (G7PSE7 entry or part of it limits assumed): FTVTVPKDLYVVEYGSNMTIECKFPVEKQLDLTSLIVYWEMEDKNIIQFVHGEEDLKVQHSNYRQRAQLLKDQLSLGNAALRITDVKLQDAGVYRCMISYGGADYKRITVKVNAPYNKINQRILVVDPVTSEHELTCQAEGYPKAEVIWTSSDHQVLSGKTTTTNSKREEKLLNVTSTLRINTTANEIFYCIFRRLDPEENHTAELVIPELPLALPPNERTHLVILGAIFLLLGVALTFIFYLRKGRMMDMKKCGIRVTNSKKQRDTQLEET
Protocol: as §2

[13] = target: T3, full length human PD-L1 on cells; experiment: FACS CHO-K1-hPD-L1, 33.33 nM mAb
hPD-L2 = target: T1, hPD-L2; experiment: ELISA (numbers in Table 9)
Protocol: as §1

[14] = target: T5, full length cyno PD-L1 on cells; experiment: FACS CHO-K1-cPD-L1, 3.70 nM mAb
Protocol: as §2

[15] = target: T5, full length cyno PD-L1 on cells; experiment: FACS CHO-K1-cPD-L1, 0.14 nM mAb
Protocol: as §2

Binder	OD450 nm [1]	Mean fluorescence intensity [2]	Mean fluorescence intensity [3]	Mean fluorescence intensity [4]	OD450 nm [5]	IL-2 (pg/mL), MLR donor1, 0.001 µg/mL mAb [6]	IL-2 (pg/mL), MLR donor1, 0.01 µg/mL mAb [6]	IL-2 (pg/mL), MLR donor1, 0.1 µg/mL mAb [6]	IL-2 (pg/mL), MLR donor1, 1 µg/mL mAb [6]	IL-2 (pg/mL), MLR donor1, 10 µg/mL mAb [6]	OD450 nm [7]	IFN-γ (pg/mL), MLR, 0.001 µg/mL mAb [8]	IFN-γ (pg/mL), MLR, 0.01 µg/mL mAb [8]	IFN-γ (pg/mL), MLR, 0.1 µg/mL mAb [8]	IFN-γ (pg/mL), MLR, 1 µg/mL mAb [8]	IFN-γ (pg/mL), MLR, 10 µg/mL mAb [8]	Mean fluorescence intensity [9]	OD450 nm [10]	OD450 nm [11]	Mean fluorescence intensity [12]	further results
chimeric anti-PD-L1 antibody 78A11F6 (antibody, V domains shown, Purified from hybridoma of Harbour H2L2 mice: human variable regions, rat constant regions) VH: EVQLVESGGGLVQPGGSLRLSCAASGITFSSYWMSWVRQTPGKGLEWVANIKQDGSEKYYVKSVKGRFTISRDNAKNSLYLQMNSLRAEDTAVYYCVRDRAVPGTGAFDIWGQGTMVIVSS VL: DIQMTQSPSTLSASVGDRVTITCRASQSISNWLAWYQQKPGKAPKLLIYKASSLESGVPSRFSGSGSGTEFTLTISSLQPDDFATYYCQQYDSSLFTFGQGTKLEIK																	105	1.73	2	124	Mean fluorescence intensity [13]: 225; binding result (hPD-L2): no binding; Mean fluorescence intensity [14]: 139; Mean fluorescence intensity [15]: 38.3
chimeric anti-PD-L1 antibody 73G11B3 (antibody, V domains shown, Purified from hybridoma of Harbour H2L2 mice: human variable regions, rat constant regions) VH: EVQLVESGGGLVQPGGSLRLSCVVSGFTFSSYWMSWVRQTPGKGLEWVANIKQDGSEKYYVDSVKGRLTISRDNAKNSLYLQMNSLRAEDTAVYYCVRDRAVPGTGALDIWGQGTMVTVSS VL: not shown	2.69	3.96	107	17.2	2.7	216 pg/mL	365 pg/mL	453 pg/mL	426 pg/mL	477 pg/mL	0.2	1520 pg/mL	3750 pg/mL	5740 pg/mL	6480 pg/mL	6950 pg/mL					
chimeric anti-PD-L1 antibody 73D3G2 (antibody, V domains shown, Purified from hybridoma of Harbour H2L2 mice: human variable regions, rat constant regions) VH: EVQLVESGGGLVQPGGSLRLSCAASGFTFNTYWMNWVRQAPGRGLEWVANIKQDGGEKYYVDSVKGRFTISRDNAKNSLYLQMNSLRAEDTAMYYCARDGRSWYPDAFDIWGQGTVVTVSS VL: DIQMTQSPSTLSASVGDRVTITCRASQSISTWLAWYQQKLGKAPKLLIYEVSILESGVPSRFSGSGSGTEFTLTISSLQPDDFATYYCQQYHSFSSFGGGTRVEIK																	87	2.03	2.03	116	Mean fluorescence intensity [13]: 116; binding result (hPD-L2): no binding; Mean fluorescence intensity [14]: 126; Mean fluorescence intensity [15]: 44.3

Further lines, with some results ahead:

OD450 nm [1]	Mean fluorescence intensity [2]	Mean fluorescence intensity [3]	Mean fluorescence intensity [4]	OD450 nm [5]	IL-2 (pg/mL), MLR donor1, 0.001 µg/mL mAb [6]	IL-2 (pg/mL), MLR donor1, 0.01 µg/mL mAb [6]	IL-2 (pg/mL), MLR donor1, 0.1 µg/mL mAb [6]	IL-2 (pg/mL), MLR donor1, 1 µg/mL mAb [6]	IL-2 (pg/mL), MLR donor1, 10 µg/mL mAb [6]	OD450 nm [7]	IFN-γ (pg/mL), MLR, 0.001 µg/mL mAb [8]	IFN-γ (pg/mL), MLR, 0.01 µg/mL mAb [8]	IFN-γ (pg/mL), MLR, 0.1 µg/mL mAb [8]	IFN-γ (pg/mL), MLR, 1 µg/mL mAb [8]	IFN-γ (pg/mL), MLR, 10 µg/mL mAb [8]	Mean fluorescence intensity [9]	OD450 nm [10]	OD450 nm [11]	Mean fluorescence intensity [12]	Binder	further results
2.7	7.85	97.6	23.5	2.77	211 pg/mL	371 pg/mL	473 pg/mL	461 pg/mL	488 pg/mL	0.21	221 pg/mL	2000 pg/mL	3120 pg/mL	3300 pg/mL	4080 pg/mL					chimeric anti-PD-L1 antibody 192D9E7 (antibody, V domains shown, Purified from hybridoma of Harbour H2L2 mice: human variable regions, rat constant regions) VH: EVQLVESGGGLVQPGGSLRLSCAASGFTFSSYWMSWVRQAPGKGLEWVADIKQDGSEKYYVDSVKGRFTISRDNAKNSLYLQMNSLRAEDTAVYYCTRDKPHWGGVMDAWGQGTSVTVSS VL: not shown	
																137	1.5	1.5	137	chimeric anti-PD-L1 antibody 105C5D7 (antibody, V domains shown, Purified from hybridoma of Harbour H2L2 mice: human variable regions, rat constant regions) VH: EVQLVESGGGLVQPGGSLRLSCAASGFTFSSYWMSWVRQAPGKGLEWVANIKQDGNEKYYVDSVKGRFTISRDNAKNSLYLQMNSLRAEDTAVYYCARNIKWGDAFDIWGQGTMVTVSS VL: DIQMTQSPSSLSASVGDRVTITCRASQSISSYLNWYQQKPGKAPKLLIYAASSLQSGVPSRFSGSGSGTDFTLTISSLQPEDFAIYSCQQSYSIPLTFGGGTKVEIK	Mean fluorescence intensity [13]: 194; binding result (hPD-L2): no binding; Mean fluorescence intensity [14]: 142; Mean fluorescence intensity [15]: 42
2.63	5.31	88.5	15.5	2.8	226 pg/mL	274 pg/mL	429 pg/mL	497 pg/mL	440 pg/mL	0.2	599 pg/mL	1560 pg/mL	3010 pg/mL	2840 pg/mL	4840 pg/mL					chimeric anti-PD-L1 antibody 127D2F3 (antibody, V domains shown, Purified from hybridoma of Harbour H2L2 mice: human variable regions, rat constant regions) VH: EVQLVESGGGLVQPGGSLRLSCVASGFTFSSYWMSWVRQAPGKGLEWVANIKQDGSEKYYVDSVKGRLTISRDNAKNSLYLQMKSLRAEDTAVYYCARDPIYSSYFDYWGQGILVTVSS VL: DIQMTQSPSSLSASVGDRVTITCRASQSISNYLNWYQQKPGKAPKLLIYAASSLQSGVPSRFSGSGSGTDFTLTISSLQPEDFAAYYCQQSYGIPFTFGPGTKVDIK	
